Measured values as given in patent US20240270846A1 (published 2024).

Molecular target: T1, CD3 epsilon homodimer protein (UniProt P07766 23-126)
T1 construct: also called CD3 (CD3 epsilon)
Assay: SPR (Biacore T200), CD3e homodimer on CM4 chip, antibody as analyte; KD ratio vs unaltered GLS3000;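 further: CD3 epsilon homodimer amine-coupled to the sensor surface, antibodies injected as analyte at 25 °C with HBS-EP+ running buffer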

T1 sequence (P07766 23-126): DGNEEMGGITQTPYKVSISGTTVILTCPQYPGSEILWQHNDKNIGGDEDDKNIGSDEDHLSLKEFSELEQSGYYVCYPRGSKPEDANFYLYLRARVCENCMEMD

| KD ratio to GLS3000 | Binder |
| --- | --- |
| 2.14 ratio | CE115HA000/GLS3000 N53V one-arm antibody (antibody, human IgG1, kappa, L234A L235A, N297A, name in Kabat numbering, one-arm IgG1) heavy: QVQLVESGGGVVQPGRSLRLSCAASGFTFSNAWMHWVRQAPGKGLEWVAQIKAKSNNYATYYAESVKGRFTISRDDSKNSLYLQMNSLKTEDTAVYYCRYVHYGAYYGVDAWGQGTTVTVSSASTKGPSVFPLAPSSKSTSGGTAALGCLVKDYFPEPVTVSWNSGALTSGVHTFPAVLQSSGLYSLSSVVTVPSSSLGTQTYICNVNHKPSNTKVDKKVEPKSCDKTHTCPPCPAPEAAGGPSVFLFPPKPKDTLMISRTPEVTCVVVDVSHEDPEVKFNWYVDGVEVHNAKTKPREEQYASTYRVVSVLTVLHQDWLNGKEYKCKVSNKALPAPIEKTISKAKGQPREPQVYTLPPSRCELTKNQVSLSCAVKGFYPSDIAVEWESNGQPENNYKTTPPVLDSDGSFFLVSKLTVDKSRWQQGNVFSCSVMHEALHNHYTQKSLSLSPDYKDDDDK EPKSSDKTHTCPPCPAPELLGGPSVFLFPPKPKDTLMISRTPEVTCVVVDVSHEDPEVKFNWYVDGVEVHNAKTKPREEQYNSTYRVVSVLTVLHQDWLNGKEYKCKVSNKALPAPIEKTISKAKGQPREPQVCTLPPSRDELTKNQVSLWCLVKGFYPSDIAVEWESNGQPENNYKTTPPVLDSDGSFFLYSKLTVDKSRWQQGNVFSCSVMHEALHNRYTQKSLSLSP light: DIVMTQSPLSLPVTPGEPASISCRSSQSLVHSNRNTYLHWYQQKPGQAPRLLIYKVSVRFSGVPDRFSGSGSGTDFTLKISRVEAEDVGVYYCGQGTQVPYTFGQGTKLEIKRTVAAPSVFIFPPSDEQLKSGTASVVCLLNNFYPREAKVQWKVDNALQSGNSQESVTEQDSKDSTYSLSSTLTLSKADYEKHKVYACEVTHQGLSSPVTKSFNRGEC |
| 2.37 ratio | CE115HA000/GLS3000 P95D one-arm antibody (antibody, human IgG1, kappa, L234A L235A, N297A, name in Kabat numbering, one-arm IgG1) heavy: QVQLVESGGGVVQPGRSLRLSCAASGFTFSNAWMHWVRQAPGKGLEWVAQIKAKSNNYATYYAESVKGRFTISRDDSKNSLYLQMNSLKTEDTAVYYCRYVHYGAYYGVDAWGQGTTVTVSSASTKGPSVFPLAPSSKSTSGGTAALGCLVKDYFPEPVTVSWNSGALTSGVHTFPAVLQSSGLYSLSSVVTVPSSSLGTQTYICNVNHKPSNTKVDKKVEPKSCDKTHTCPPCPAPEAAGGPSVFLFPPKPKDTLMISRTPEVTCVVVDVSHEDPEVKFNWYVDGVEVHNAKTKPREEQYASTYRVVSVLTVLHQDWLNGKEYKCKVSNKALPAPIEKTISKAKGQPREPQVYTLPPSRCELTKNQVSLSCAVKGFYPSDIAVEWESNGQPENNYKTTPPVLDSDGSFFLVSKLTVDKSRWQQGNVFSCSVMHEALHNHYTQKSLSLSPDYKDDDDK EPKSSDKTHTCPPCPAPELLGGPSVFLFPPKPKDTLMISRTPEVTCVVVDVSHEDPEVKFNWYVDGVEVHNAKTKPREEQYNSTYRVVSVLTVLHQDWLNGKEYKCKVSNKALPAPIEKTISKAKGQPREPQVCTLPPSRDELTKNQVSLWCLVKGFYPSDIAVEWESNGQPENNYKTTPPVLDSDGSFFLYSKLTVDKSRWQQGNVFSCSVMHEALHNRYTQKSLSLSP light: DIVMTQSPLSLPVTPGEPASISCRSSQSLVHSNRNTYLHWYQQKPGQAPRLLIYKVSNRFSGVPDRFSGSGSGTDFTLKISRVEAEDVGVYYCGQGTQVDYTFGQGTKLEIKRTVAAPSVFIFPPSDEQLKSGTASVVCLLNNFYPREAKVQWKVDNALQSGNSQESVTEQDSKDSTYSLSSTLTLSKADYEKHKVYACEVTHQGLSSPVTKSFNRGEC |
| 0.99 ratio | CE115HA000/GLS3000 N53Y one-arm antibody (antibody, human IgG1, kappa, L234A L235A, N297A, name in Kabat numbering, one-arm IgG1) heavy: QVQLVESGGGVVQPGRSLRLSCAASGFTFSNAWMHWVRQAPGKGLEWVAQIKAKSNNYATYYAESVKGRFTISRDDSKNSLYLQMNSLKTEDTAVYYCRYVHYGAYYGVDAWGQGTTVTVSSASTKGPSVFPLAPSSKSTSGGTAALGCLVKDYFPEPVTVSWNSGALTSGVHTFPAVLQSSGLYSLSSVVTVPSSSLGTQTYICNVNHKPSNTKVDKKVEPKSCDKTHTCPPCPAPEAAGGPSVFLFPPKPKDTLMISRTPEVTCVVVDVSHEDPEVKFNWYVDGVEVHNAKTKPREEQYASTYRVVSVLTVLHQDWLNGKEYKCKVSNKALPAPIEKTISKAKGQPREPQVYTLPPSRCELTKNQVSLSCAVKGFYPSDIAVEWESNGQPENNYKTTPPVLDSDGSFFLVSKLTVDKSRWQQGNVFSCSVMHEALHNHYTQKSLSLSPDYKDDDDK EPKSSDKTHTCPPCPAPELLGGPSVFLFPPKPKDTLMISRTPEVTCVVVDVSHEDPEVKFNWYVDGVEVHNAKTKPREEQYNSTYRVVSVLTVLHQDWLNGKEYKCKVSNKALPAPIEKTISKAKGQPREPQVCTLPPSRDELTKNQVSLWCLVKGFYPSDIAVEWESNGQPENNYKTTPPVLDSDGSFFLYSKLTVDKSRWQQGNVFSCSVMHEALHNRYTQKSLSLSP light: DIVMTQSPLSLPVTPGEPASISCRSSQSLVHSNRNTYLHWYQQKPGQAPRLLIYKVSYRFSGVPDRFSGSGSGTDFTLKISRVEAEDVGVYYCGQGTQVPYTFGQGTKLEIKRTVAAPSVFIFPPSDEQLKSGTASVVCLLNNFYPREAKVQWKVDNALQSGNSQESVTEQDSKDSTYSLSSTLTLSKADYEKHKVYACEVTHQGLSSPVTKSFNRGEC |
| 1.01 ratio | CE115HA000/GLS3000 P95E one-arm antibody (antibody, human IgG1, kappa, L234A L235A, N297A, name in Kabat numbering, one-arm IgG1) heavy: QVQLVESGGGVVQPGRSLRLSCAASGFTFSNAWMHWVRQAPGKGLEWVAQIKAKSNNYATYYAESVKGRFTISRDDSKNSLYLQMNSLKTEDTAVYYCRYVHYGAYYGVDAWGQGTTVTVSSASTKGPSVFPLAPSSKSTSGGTAALGCLVKDYFPEPVTVSWNSGALTSGVHTFPAVLQSSGLYSLSSVVTVPSSSLGTQTYICNVNHKPSNTKVDKKVEPKSCDKTHTCPPCPAPEAAGGPSVFLFPPKPKDTLMISRTPEVTCVVVDVSHEDPEVKFNWYVDGVEVHNAKTKPREEQYASTYRVVSVLTVLHQDWLNGKEYKCKVSNKALPAPIEKTISKAKGQPREPQVYTLPPSRCELTKNQVSLSCAVKGFYPSDIAVEWESNGQPENNYKTTPPVLDSDGSFFLVSKLTVDKSRWQQGNVFSCSVMHEALHNHYTQKSLSLSPDYKDDDDK EPKSSDKTHTCPPCPAPELLGGPSVFLFPPKPKDTLMISRTPEVTCVVVDVSHEDPEVKFNWYVDGVEVHNAKTKPREEQYNSTYRVVSVLTVLHQDWLNGKEYKCKVSNKALPAPIEKTISKAKGQPREPQVCTLPPSRDELTKNQVSLWCLVKGFYPSDIAVEWESNGQPENNYKTTPPVLDSDGSFFLYSKLTVDKSRWQQGNVFSCSVMHEALHNRYTQKSLSLSP light: DIVMTQSPLSLPVTPGEPASISCRSSQSLVHSNRNTYLHWYQQKPGQAPRLLIYKVSNRFSGVPDRFSGSGSGTDFTLKISRVEAEDVGVYYCGQGTQVEYTFGQGTKLEIKRTVAAPSVFIFPPSDEQLKSGTASVVCLLNNFYPREAKVQWKVDNALQSGNSQESVTEQDSKDSTYSLSSTLTLSKADYEKHKVYACEVTHQGLSSPVTKSFNRGEC |
| 0.87 ratio | CE115HA000/GLS3000 P95A one-arm antibody (antibody, human IgG1, kappa, L234A L235A, N297A, name in Kabat numbering, one-arm IgG1) heavy: QVQLVESGGGVVQPGRSLRLSCAASGFTFSNAWMHWVRQAPGKGLEWVAQIKAKSNNYATYYAESVKGRFTISRDDSKNSLYLQMNSLKTEDTAVYYCRYVHYGAYYGVDAWGQGTTVTVSSASTKGPSVFPLAPSSKSTSGGTAALGCLVKDYFPEPVTVSWNSGALTSGVHTFPAVLQSSGLYSLSSVVTVPSSSLGTQTYICNVNHKPSNTKVDKKVEPKSCDKTHTCPPCPAPEAAGGPSVFLFPPKPKDTLMISRTPEVTCVVVDVSHEDPEVKFNWYVDGVEVHNAKTKPREEQYASTYRVVSVLTVLHQDWLNGKEYKCKVSNKALPAPIEKTISKAKGQPREPQVYTLPPSRCELTKNQVSLSCAVKGFYPSDIAVEWESNGQPENNYKTTPPVLDSDGSFFLVSKLTVDKSRWQQGNVFSCSVMHEALHNHYTQKSLSLSPDYKDDDDK EPKSSDKTHTCPPCPAPELLGGPSVFLFPPKPKDTLMISRTPEVTCVVVDVSHEDPEVKFNWYVDGVEVHNAKTKPREEQYNSTYRVVSVLTVLHQDWLNGKEYKCKVSNKALPAPIEKTISKAKGQPREPQVCTLPPSRDELTKNQVSLWCLVKGFYPSDIAVEWESNGQPENNYKTTPPVLDSDGSFFLYSKLTVDKSRWQQGNVFSCSVMHEALHNRYTQKSLSLSP light: DIVMTQSPLSLPVTPGEPASISCRSSQSLVHSNRNTYLHWYQQKPGQAPRLLIYKVSNRFSGVPDRFSGSGSGTDFTLKISRVEAEDVGVYYCGQGTQVAYTFGQGTKLEIKRTVAAPSVFIFPPSDEQLKSGTASVVCLLNNFYPREAKVQWKVDNALQSGNSQESVTEQDSKDSTYSLSSTLTLSKADYEKHKVYACEVTHQGLSSPVTKSFNRGEC |
| 1.01 ratio | CE115HA000/GLS3000 N53W one-arm antibody (antibody, human IgG1, kappa, L234A L235A, N297A, name in Kabat numbering, one-arm IgG1) heavy: QVQLVESGGGVVQPGRSLRLSCAASGFTFSNAWMHWVRQAPGKGLEWVAQIKAKSNNYATYYAESVKGRFTISRDDSKNSLYLQMNSLKTEDTAVYYCRYVHYGAYYGVDAWGQGTTVTVSSASTKGPSVFPLAPSSKSTSGGTAALGCLVKDYFPEPVTVSWNSGALTSGVHTFPAVLQSSGLYSLSSVVTVPSSSLGTQTYICNVNHKPSNTKVDKKVEPKSCDKTHTCPPCPAPEAAGGPSVFLFPPKPKDTLMISRTPEVTCVVVDVSHEDPEVKFNWYVDGVEVHNAKTKPREEQYASTYRVVSVLTVLHQDWLNGKEYKCKVSNKALPAPIEKTISKAKGQPREPQVYTLPPSRCELTKNQVSLSCAVKGFYPSDIAVEWESNGQPENNYKTTPPVLDSDGSFFLVSKLTVDKSRWQQGNVFSCSVMHEALHNHYTQKSLSLSPDYKDDDDK EPKSSDKTHTCPPCPAPELLGGPSVFLFPPKPKDTLMISRTPEVTCVVVDVSHEDPEVKFNWYVDGVEVHNAKTKPREEQYNSTYRVVSVLTVLHQDWLNGKEYKCKVSNKALPAPIEKTISKAKGQPREPQVCTLPPSRDELTKNQVSLWCLVKGFYPSDIAVEWESNGQPENNYKTTPPVLDSDGSFFLYSKLTVDKSRWQQGNVFSCSVMHEALHNRYTQKSLSLSP light: DIVMTQSPLSLPVTPGEPASISCRSSQSLVHSNRNTYLHWYQQKPGQAPRLLIYKVSWRFSGVPDRFSGSGSGTDFTLKISRVEAEDVGVYYCGQGTQVPYTFGQGTKLEIKRTVAAPSVFIFPPSDEQLKSGTASVVCLLNNFYPREAKVQWKVDNALQSGNSQESVTEQDSKDSTYSLSSTLTLSKADYEKHKVYACEVTHQGLSSPVTKSFNRGEC |
